Measured values: PMC9951844

Biological target: SARS-CoV-2 wildtype spike antigen of the SPR column (construct not stated) (SARS-CoV-2)
Assay: SPR

B1: YB9-258 (antibody, V domains shown)
VH: EVQLVESGGGLIQPGGSLRLSCAASGLTVSSNYMHWVRQAPGKGLEWVSVLYAGGSAFYADSVKGRFTISRNNSKNTLYLQMNSLRAEDTAIYYCARGLGDYLDSWGQGTLVTVSS
VL: DIQMTQSPSSVSASVGDRVTITCRASQGIGSWLAWYQQKPGKAPQLLIYAASTLQSGVPPRFSGSGSGTDFTLTITSLQPEDFASYYCQQANSVLALTFGGGTKVEIK
  Kd: 0.18 nM
